One block for each molecule: values may come before it.
How the values were obtained:
[1] = target: truncated variant of ZapT-His that lacks the C-terminal sensor domain (Caulobacter crescentus); experiment: SEC; Superdex 200 PC3.2/30; 25 mM Tris-HCl pH 7.5, 300 mM NaCl, 20% sucrose; 20 ul/min; fractions on SDS-15% PAGE, Coomassie; single proteins and mixtures (also His-ZauP + ZapT-His + ZapTΔC-His with ZapT-His as internal control)
[2] = target: the molecule itself; experiment: as above

- stoichiometry N [1]: 2
Molecule: truncated variant of ZapT-His that lacks the C-terminal sensor domain (domain or fragment)

B1: ZauP with an N-terminal hexahistidine-SUMO tag (natural protein, Caulobacter crescentus, UniProt A0A0H3CD23 1-127, looked up)
chain: MIPADSTALDLAVRRLERAVSQLEQRLAAKAAETQRALAAAATSAVALPLAVTEPSLFDDDERARLVADLEAAREREKALEEAGEQASVALGRAIAEIRAALGDESVANDLHAPGDDDDLFEDSEEA
notes: ZauP, functional ZapB homolog of Caulobacter crescentus NA1000, locus CCNA_03357; tagged protein printed as 26 kDa; primers Nhis-SUMO-zapB-P3/P4 run from the start codon to the stop codon; also called His-ZauP; source: E. coli, purified (procedure in Text S1); not shown: His6-SUMO, N-terminal, kept
- stoichiometry N [2]: 6

B2: ZapA with an N-terminal hexahistidine-MBP tag (natural protein, Caulobacter crescentus, UniProt A0A0H3CCW6 1-108, looked up)
chain: MAQVTIQVNGRPYMVGCEDGQEPHLTELARLFDRQVRQVSQDVGQLGETRLFLMGALLLADELSDMKLRLAHANAEIARMQQEGTKAEIAAIRALDAAAERIEKLATE
notes: ZapA, Z-ring-associated protein of Caulobacter crescentus NA1000, locus CCNA_03356; tagged protein printed as 56 kDa; primers NhisMBP-zapA-fwd/rev run from the start codon to the stop codon; also called His-ZapA; source: E. coli, purified (procedure in Text S1); not shown: His6-MBP, N-terminal, kept
- stoichiometry N [2]: 4

B3: ZapT with a C-terminal hexahistidine tag (natural protein, Caulobacter crescentus, UniProt A0A0H3C832 1-141, looked up)
chain: MAKGPNAFRTISEAAEELGVPQHVLRFWETKFSFIRPMKRAGGRRFYRPQDIAVLNGVRTLLHSEGLTIKGVQKLHRDHGLAHVIAAGLGSNGSASLEAEYDYAPRGKERPVGEETRDRLAFALADLTAIKSRLDGLLARG
notes: tagged protein printed as 21 kDa; the last residue of ZapT is printed as Gly141; also called ZapT-His; wild-type ZapT-His; source: E. coli, purified (procedure in Text S1); not shown: His6, C-terminal, kept
- stoichiometry N [2]: 2
